According to paper doi:10.1101/2020.12.21.423144 (bioRxiv, 2020):

Molecular target: the molecule itself
Assay: SEC

Protein	binding result	dimer level (relative to monomer) [arbitrary units]
A2AR-Q372ΔC (domain or fragment) MPIMGSSVYITVELAIAVLAILGNVLVCWAVWLNSNLQNVTNYFVVSLAAADIAVGVLAIPFAITISTGFCAACHGCLFIACFVLVLTQSSIFSLLAIAIDRYIAIRIPLRYNGLVTGTRAKGIIAICWVLSFAIGLTPMLGWNNCGQPKEGKNHSQGCGEGQVACLFEDVVPMNYMVYFNFFACVLVPLLLMLGVYLRIFLAARRQLKQMESQPLPGERARSTLQKEVHAAKSLAIIVGLFALCWLPLHIINCFTFFCPDCSHAPLWLMYLAIVLSHTNSVVNPFIYAYRIREFRQTFRKIIRSHVLRQQEPFKAAGTSARVLAAHGSDGEQVSLRLNGHPPGVWANGSAPHPERRPNGYALGLVSGGSAQ	binds	–
A2AR-V334ΔC (domain or fragment) MPIMGSSVYITVELAIAVLAILGNVLVCWAVWLNSNLQNVTNYFVVSLAAADIAVGVLAIPFAITISTGFCAACHGCLFIACFVLVLTQSSIFSLLAIAIDRYIAIRIPLRYNGLVTGTRAKGIIAICWVLSFAIGLTPMLGWNNCGQPKEGKNHSQGCGEGQVACLFEDVVPMNYMVYFNFFACVLVPLLLMLGVYLRIFLAARRQLKQMESQPLPGERARSTLQKEVHAAKSLAIIVGLFALCWLPLHIINCFTFFCPDCSHAPLWLMYLAIVLSHTNSVVNPFIYAYRIREFRQTFRKIIRSHVLRQQEPFKAAGTSARVLAAHGSDGEQV	binds	–
A2AR-P354ΔC (domain or fragment) MPIMGSSVYITVELAIAVLAILGNVLVCWAVWLNSNLQNVTNYFVVSLAAADIAVGVLAIPFAITISTGFCAACHGCLFIACFVLVLTQSSIFSLLAIAIDRYIAIRIPLRYNGLVTGTRAKGIIAICWVLSFAIGLTPMLGWNNCGQPKEGKNHSQGCGEGQVACLFEDVVPMNYMVYFNFFACVLVPLLLMLGVYLRIFLAARRQLKQMESQPLPGERARSTLQKEVHAAKSLAIIVGLFALCWLPLHIINCFTFFCPDCSHAPLWLMYLAIVLSHTNSVVNPFIYAYRIREFRQTFRKIIRSHVLRQQEPFKAAGTSARVLAAHGSDGEQVSLRLNGHPPGVWANGSAPHP	–	0.19
A2AR-P395ΔC (domain or fragment) MPIMGSSVYITVELAIAVLAILGNVLVCWAVWLNSNLQNVTNYFVVSLAAADIAVGVLAIPFAITISTGFCAACHGCLFIACFVLVLTQSSIFSLLAIAIDRYIAIRIPLRYNGLVTGTRAKGIIAICWVLSFAIGLTPMLGWNNCGQPKEGKNHSQGCGEGQVACLFEDVVPMNYMVYFNFFACVLVPLLLMLGVYLRIFLAARRQLKQMESQPLPGERARSTLQKEVHAAKSLAIIVGLFALCWLPLHIINCFTFFCPDCSHAPLWLMYLAIVLSHTNSVVNPFIYAYRIREFRQTFRKIIRSHVLRQQEPFKAAGTSARVLAAHGSDGEQVSLRLNGHPPGVWANGSAPHPERRPNGYALGLVSGGSAQESQGNTGLPDVELLSHELKGVCP	binds	–
A2AR-FL-ERR:AAA (receptor) MPIMGSSVYITVELAIAVLAILGNVLVCWAVWLNSNLQNVTNYFVVSLAAADIAVGVLAIPFAITISTGFCAACHGCLFIACFVLVLTQSSIFSLLAIAIDRYIAIRIPLRYNGLVTGTRAKGIIAICWVLSFAIGLTPMLGWNNCGQPKEGKNHSQGCGEGQVACLFEDVVPMNYMVYFNFFACVLVPLLLMLGVYLRIFLAARRQLKQMESQPLPGERARSTLQKEVHAAKSLAIIVGLFALCWLPLHIINCFTFFCPDCSHAPLWLMYLAIVLSHTNSVVNPFIYAYRIREFRQTFRKIIRSHVLRQQEPFKAAGTSARVLAAHGSDGEQVSLRLNGHPPGVWANGSAPHPAAAPNGYALGLVSGGSAQESQGNTGLPDVELLSHELKGVCPEPPGLDDPLAQDGAGVS	–	0.29
A2AR-C394M (receptor) MPIMGSSVYITVELAIAVLAILGNVLVCWAVWLNSNLQNVTNYFVVSLAAADIAVGVLAIPFAITISTGFCAACHGCLFIACFVLVLTQSSIFSLLAIAIDRYIAIRIPLRYNGLVTGTRAKGIIAICWVLSFAIGLTPMLGWNNCGQPKEGKNHSQGCGEGQVACLFEDVVPMNYMVYFNFFACVLVPLLLMLGVYLRIFLAARRQLKQMESQPLPGERARSTLQKEVHAAKSLAIIVGLFALCWLPLHIINCFTFFCPDCSHAPLWLMYLAIVLSHTNSVVNPFIYAYRIREFRQTFRKIIRSHVLRQQEPFKAAGTSARVLAAHGSDGEQVSLRLNGHPPGVWANGSAPHPERRPNGYALGLVSGGSAQESQGNTGLPDVELLSHELKGVMPEPPGLDDPLAQDGAGVS	binds	–
A2AR-C394L (receptor) MPIMGSSVYITVELAIAVLAILGNVLVCWAVWLNSNLQNVTNYFVVSLAAADIAVGVLAIPFAITISTGFCAACHGCLFIACFVLVLTQSSIFSLLAIAIDRYIAIRIPLRYNGLVTGTRAKGIIAICWVLSFAIGLTPMLGWNNCGQPKEGKNHSQGCGEGQVACLFEDVVPMNYMVYFNFFACVLVPLLLMLGVYLRIFLAARRQLKQMESQPLPGERARSTLQKEVHAAKSLAIIVGLFALCWLPLHIINCFTFFCPDCSHAPLWLMYLAIVLSHTNSVVNPFIYAYRIREFRQTFRKIIRSHVLRQQEPFKAAGTSARVLAAHGSDGEQVSLRLNGHPPGVWANGSAPHPERRPNGYALGLVSGGSAQESQGNTGLPDVELLSHELKGVLPEPPGLDDPLAQDGAGVS	binds	–
A2AR-C394V (receptor) MPIMGSSVYITVELAIAVLAILGNVLVCWAVWLNSNLQNVTNYFVVSLAAADIAVGVLAIPFAITISTGFCAACHGCLFIACFVLVLTQSSIFSLLAIAIDRYIAIRIPLRYNGLVTGTRAKGIIAICWVLSFAIGLTPMLGWNNCGQPKEGKNHSQGCGEGQVACLFEDVVPMNYMVYFNFFACVLVPLLLMLGVYLRIFLAARRQLKQMESQPLPGERARSTLQKEVHAAKSLAIIVGLFALCWLPLHIINCFTFFCPDCSHAPLWLMYLAIVLSHTNSVVNPFIYAYRIREFRQTFRKIIRSHVLRQQEPFKAAGTSARVLAAHGSDGEQVSLRLNGHPPGVWANGSAPHPERRPNGYALGLVSGGSAQESQGNTGLPDVELLSHELKGVVPEPPGLDDPLAQDGAGVS	binds	–
A2AR-C394S (receptor) MPIMGSSVYITVELAIAVLAILGNVLVCWAVWLNSNLQNVTNYFVVSLAAADIAVGVLAIPFAITISTGFCAACHGCLFIACFVLVLTQSSIFSLLAIAIDRYIAIRIPLRYNGLVTGTRAKGIIAICWVLSFAIGLTPMLGWNNCGQPKEGKNHSQGCGEGQVACLFEDVVPMNYMVYFNFFACVLVPLLLMLGVYLRIFLAARRQLKQMESQPLPGERARSTLQKEVHAAKSLAIIVGLFALCWLPLHIINCFTFFCPDCSHAPLWLMYLAIVLSHTNSVVNPFIYAYRIREFRQTFRKIIRSHVLRQQEPFKAAGTSARVLAAHGSDGEQVSLRLNGHPPGVWANGSAPHPERRPNGYALGLVSGGSAQESQGNTGLPDVELLSHELKGVSPEPPGLDDPLAQDGAGVS	binds	–
A2AR-C394A (receptor) MPIMGSSVYITVELAIAVLAILGNVLVCWAVWLNSNLQNVTNYFVVSLAAADIAVGVLAIPFAITISTGFCAACHGCLFIACFVLVLTQSSIFSLLAIAIDRYIAIRIPLRYNGLVTGTRAKGIIAICWVLSFAIGLTPMLGWNNCGQPKEGKNHSQGCGEGQVACLFEDVVPMNYMVYFNFFACVLVPLLLMLGVYLRIFLAARRQLKQMESQPLPGERARSTLQKEVHAAKSLAIIVGLFALCWLPLHIINCFTFFCPDCSHAPLWLMYLAIVLSHTNSVVNPFIYAYRIREFRQTFRKIIRSHVLRQQEPFKAAGTSARVLAAHGSDGEQVSLRLNGHPPGVWANGSAPHPERRPNGYALGLVSGGSAQESQGNTGLPDVELLSHELKGVAPEPPGLDDPLAQDGAGVS	binds	–
A2AR-G344ΔC (domain or fragment) MPIMGSSVYITVELAIAVLAILGNVLVCWAVWLNSNLQNVTNYFVVSLAAADIAVGVLAIPFAITISTGFCAACHGCLFIACFVLVLTQSSIFSLLAIAIDRYIAIRIPLRYNGLVTGTRAKGIIAICWVLSFAIGLTPMLGWNNCGQPKEGKNHSQGCGEGQVACLFEDVVPMNYMVYFNFFACVLVPLLLMLGVYLRIFLAARRQLKQMESQPLPGERARSTLQKEVHAAKSLAIIVGLFALCWLPLHIINCFTFFCPDCSHAPLWLMYLAIVLSHTNSVVNPFIYAYRIREFRQTFRKIIRSHVLRQQEPFKAAGTSARVLAAHGSDGEQVSLRLNGHPPG	binds	–
A2AR-G349ΔC (domain or fragment) MPIMGSSVYITVELAIAVLAILGNVLVCWAVWLNSNLQNVTNYFVVSLAAADIAVGVLAIPFAITISTGFCAACHGCLFIACFVLVLTQSSIFSLLAIAIDRYIAIRIPLRYNGLVTGTRAKGIIAICWVLSFAIGLTPMLGWNNCGQPKEGKNHSQGCGEGQVACLFEDVVPMNYMVYFNFFACVLVPLLLMLGVYLRIFLAARRQLKQMESQPLPGERARSTLQKEVHAAKSLAIIVGLFALCWLPLHIINCFTFFCPDCSHAPLWLMYLAIVLSHTNSVVNPFIYAYRIREFRQTFRKIIRSHVLRQQEPFKAAGTSARVLAAHGSDGEQVSLRLNGHPPGVWANG	binds	–

molecular target: P29274; assay: SEC

Protein	HMW oligomer level (relative to monomer)	total oligomer level (HMW oligomer and dimer, relative to monomer)
A2AR-FL-ERR:AAA (receptor) MPIMGSSVYITVELAIAVLAILGNVLVCWAVWLNSNLQNVTNYFVVSLAAADIAVGVLAIPFAITISTGFCAACHGCLFIACFVLVLTQSSIFSLLAIAIDRYIAIRIPLRYNGLVTGTRAKGIIAICWVLSFAIGLTPMLGWNNCGQPKEGKNHSQGCGEGQVACLFEDVVPMNYMVYFNFFACVLVPLLLMLGVYLRIFLAARRQLKQMESQPLPGERARSTLQKEVHAAKSLAIIVGLFALCWLPLHIINCFTFFCPDCSHAPLWLMYLAIVLSHTNSVVNPFIYAYRIREFRQTFRKIIRSHVLRQQEPFKAAGTSARVLAAHGSDGEQVSLRLNGHPPGVWANGSAPHPAAAPNGYALGLVSGGSAQESQGNTGLPDVELLSHELKGVCPEPPGLDDPLAQDGAGVS	ERR:AAA: 0.66	ERR:AAA: 0.94
A2AR-N359ΔC (protein) MPIMGSSVYITVELAIAVLAILGNVLVCWAVWLNSNLQNVTNYFVVSLAAADIAVGVLAIPFAITISTGFCAACHGCLFIACFVLVLTQSSIFSLLAIAIDRYIAIRIPLRYNGLVTGTRAKGIIAICWVLSFAIGLTPMLGWNNCGQPKEGKNHSQGCGEGQVACLFEDVVPMNYMVYFNFFACVLVPLLLMLGVYLRIFLAARRQLKQMESQPLPGERARSTLQKEVHAAKSLAIIVGLFALCWLPLHIINCFTFFCPDCSHAPLWLMYLAIVLSHTNSVVNPFIYAYRIREFRQTFRKIIRSHVLRQQEPFKAAGTSARVLAAHGSDGEQVSLRLNGHPPGVWANGSAPHPERRPN	ctrl: 0.68	ctrl: 1.01
